Measurements as given in US20220204580A1 (AstraZeneca / MedImmune, published 2022).
Numbered stars: 1 amine (or outer) side, 2 acyl side, 3 side chain; on linkers, the order of the positions; unused ones are H or OH. Bridge positions count the residues as written; N and C are the ends. Square brackets hold non-standard residues; d marks the D form. Side chains are listed from the residue outwards. Ends that are not written are not given here. * marks the point of attachment. C20 diacid = O=C(O)CCCCCCCCCCCCCCCCCCC(=O)*; C18 diacid = O=C(O)CCCCCCCCCCCCCCCCC(=O)*; γGlu = O=C(O)[C@H](CCC(=O)[*:2])N[*:1]; Hyp = O=C(O)[C@@H]1C[C@@H](O)CN1; Dab = NCC[C@H](N)C(=O)O; Aib = CC(C)(N)C(=O)O

T1: human calcitonin receptor (human, UniProt P30988 25-474)
T1 sequence (looked up): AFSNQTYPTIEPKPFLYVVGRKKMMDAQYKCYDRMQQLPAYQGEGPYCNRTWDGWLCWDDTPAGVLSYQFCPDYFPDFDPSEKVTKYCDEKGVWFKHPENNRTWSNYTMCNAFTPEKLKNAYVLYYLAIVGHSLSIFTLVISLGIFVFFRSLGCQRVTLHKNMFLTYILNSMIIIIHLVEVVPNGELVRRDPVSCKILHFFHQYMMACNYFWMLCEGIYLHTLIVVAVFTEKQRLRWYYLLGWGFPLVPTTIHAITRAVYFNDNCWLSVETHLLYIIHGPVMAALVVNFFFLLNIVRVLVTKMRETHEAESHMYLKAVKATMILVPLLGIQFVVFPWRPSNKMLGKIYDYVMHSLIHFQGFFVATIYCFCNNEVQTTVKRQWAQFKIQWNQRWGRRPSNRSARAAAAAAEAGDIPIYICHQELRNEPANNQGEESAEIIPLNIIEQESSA

T2: human amylin receptor (calcitonin receptor co-expressed with receptor activity modifying protein, RAMP3) (human, UniProt P30988 25-474; O60896 24-148)
T2 sequence (looked up) 1: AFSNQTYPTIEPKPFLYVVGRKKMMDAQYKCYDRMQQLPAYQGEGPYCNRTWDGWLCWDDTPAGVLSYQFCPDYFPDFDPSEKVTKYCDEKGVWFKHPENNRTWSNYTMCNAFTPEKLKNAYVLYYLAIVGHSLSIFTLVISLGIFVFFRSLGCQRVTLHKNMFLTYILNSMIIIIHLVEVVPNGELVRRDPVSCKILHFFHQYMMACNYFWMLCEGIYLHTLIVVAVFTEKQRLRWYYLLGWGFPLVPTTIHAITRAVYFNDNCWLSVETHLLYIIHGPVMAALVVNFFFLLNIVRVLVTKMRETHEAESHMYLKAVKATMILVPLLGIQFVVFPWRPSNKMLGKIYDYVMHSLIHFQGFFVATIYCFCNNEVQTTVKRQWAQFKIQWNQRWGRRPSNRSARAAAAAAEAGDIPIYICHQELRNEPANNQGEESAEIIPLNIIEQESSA
T2 sequence (looked up) 2: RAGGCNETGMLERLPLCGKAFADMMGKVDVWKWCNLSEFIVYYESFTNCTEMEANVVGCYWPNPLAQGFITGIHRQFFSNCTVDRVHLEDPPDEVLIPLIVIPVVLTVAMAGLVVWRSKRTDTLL

B1: Peptide 122 (SEQ ID NO: 122) (peptide)
peptide: K([γGlu-γGlu-C18 diacid])CNTATCATQRLANFLVHSS[Aib]NFPAILSPT[Dab]VGSNTY-NH2
modifications: disulfide 2-7; N-terminus assumed
SMILES: CC[C@H](C)[C@H](NC(=O)[C@H](C)NC(=O)[C@@H]1CCCN1C(=O)[C@H](Cc1ccccc1)NC(=O)[C@H](CC(N)=O)NC(=O)C(C)(C)NC(=O)[C@H](CO)NC(=O)[C@H](CO)NC(=O)[C@H](Cc1c[nH]cn1)NC(=O)[C@@H](NC(=O)[C@H](CC(C)C)NC(=O)[C@H](Cc1ccccc1)NC(=O)[C@H](CC(N)=O)NC(=O)[C@H](C)NC(=O)[C@H](CC(C)C)NC(=O)[C@H](CCCNC(=N)N)NC(=O)[C@H](CCC(N)=O)NC(=O)[C@@H](NC(=O)[C@H](C)NC(=O)[C@@H]1CSSC[C@H](NC(=O)[C@@H](N)CCCCNC(=O)CC[C@H](NC(=O)CC[C@H](NC(=O)CCCCCCCCCCCCCCCCC(=O)O)C(=O)O)C(=O)O)C(=O)N[C@@H](CC(N)=O)C(=O)N[C@@H]([C@@H](C)O)C(=O)N[C@@H](C)C(=O)N[C@@H]([C@@H](C)O)C(=O)N1)[C@@H](C)O)C(C)C)C(=O)N[C@@H](CC(C)C)C(=O)N[C@@H](CO)C(=O)N1CCC[C@H]1C(=O)N[C@H](C(=O)N[C@@H](CCN)C(=O)N[C@H](C(=O)NCC(=O)N[C@@H](CO)C(=O)N[C@@H](CC(N)=O)C(=O)N[C@H](C(=O)N[C@@H](Cc1ccc(O)cc1)C(N)=O)[C@@H](C)O)C(C)C)[C@@H](C)O
B2: Peptide 120 (SEQ ID NO: 120) (peptide)
peptide: K([γGlu-γGlu-C20 diacid])CNAATCATQRLANWLVHSSPNFPAILSPTNVGSNTY-NH2
modifications: disulfide 2-7; N-terminus assumed
SMILES: CC[C@H](C)[C@H](NC(=O)[C@H](C)NC(=O)[C@@H]1CCCN1C(=O)[C@H](Cc1ccccc1)NC(=O)[C@H](CC(N)=O)NC(=O)[C@@H]1CCCN1C(=O)[C@H](CO)NC(=O)[C@H](CO)NC(=O)[C@H](Cc1c[nH]cn1)NC(=O)[C@@H](NC(=O)[C@H](CC(C)C)NC(=O)[C@H](Cc1c[nH]c2ccccc12)NC(=O)[C@H](CC(N)=O)NC(=O)[C@H](C)NC(=O)[C@H](CC(C)C)NC(=O)[C@H](CCCNC(=N)N)NC(=O)[C@H](CCC(N)=O)NC(=O)[C@@H](NC(=O)[C@H](C)NC(=O)[C@@H]1CSSC[C@H](NC(=O)[C@@H](N)CCCCNC(=O)CC[C@H](NC(=O)CC[C@H](NC(=O)CCCCCCCCCCCCCCCCCCC(=O)O)C(=O)O)C(=O)O)C(=O)N[C@@H](CC(N)=O)C(=O)N[C@@H](C)C(=O)N[C@@H](C)C(=O)N[C@@H]([C@@H](C)O)C(=O)N1)[C@@H](C)O)C(C)C)C(=O)N[C@@H](CC(C)C)C(=O)N[C@@H](CO)C(=O)N1CCC[C@H]1C(=O)N[C@H](C(=O)N[C@@H](CC(N)=O)C(=O)N[C@H](C(=O)NCC(=O)N[C@@H](CO)C(=O)N[C@@H](CC(N)=O)C(=O)N[C@H](C(=O)N[C@@H](Cc1ccc(O)cc1)C(N)=O)[C@@H](C)O)C(C)C)[C@@H](C)O
B3: Peptide 124 (SEQ ID NO: 124) (peptide)
peptide: K([γGlu-γGlu-C18 diacid])CNTATCATQRLANFLVHSS[Aib]NFPAILSPTNVGS[Dab]TY-NH2
modifications: disulfide 2-7; N-terminus assumed
SMILES: CC[C@H](C)[C@H](NC(=O)[C@H](C)NC(=O)[C@@H]1CCCN1C(=O)[C@H](Cc1ccccc1)NC(=O)[C@H](CC(N)=O)NC(=O)C(C)(C)NC(=O)[C@H](CO)NC(=O)[C@H](CO)NC(=O)[C@H](Cc1c[nH]cn1)NC(=O)[C@@H](NC(=O)[C@H](CC(C)C)NC(=O)[C@H](Cc1ccccc1)NC(=O)[C@H](CC(N)=O)NC(=O)[C@H](C)NC(=O)[C@H](CC(C)C)NC(=O)[C@H](CCCNC(=N)N)NC(=O)[C@H](CCC(N)=O)NC(=O)[C@@H](NC(=O)[C@H](C)NC(=O)[C@@H]1CSSC[C@H](NC(=O)[C@@H](N)CCCCNC(=O)CC[C@H](NC(=O)CC[C@H](NC(=O)CCCCCCCCCCCCCCCCC(=O)O)C(=O)O)C(=O)O)C(=O)N[C@@H](CC(N)=O)C(=O)N[C@@H]([C@@H](C)O)C(=O)N[C@@H](C)C(=O)N[C@@H]([C@@H](C)O)C(=O)N1)[C@@H](C)O)C(C)C)C(=O)N[C@@H](CC(C)C)C(=O)N[C@@H](CO)C(=O)N1CCC[C@H]1C(=O)N[C@H](C(=O)N[C@@H](CC(N)=O)C(=O)N[C@H](C(=O)NCC(=O)N[C@@H](CO)C(=O)N[C@@H](CCN)C(=O)N[C@H](C(=O)N[C@@H](Cc1ccc(O)cc1)C(N)=O)[C@@H](C)O)C(C)C)[C@@H](C)O
B4: Peptide 123 (SEQ ID NO: 123) (peptide)
peptide: K([γGlu-γGlu-C20 diacid])CNTATCATQRLANFLVHSS[Aib]NFPAILSPT[Dab]VGSNTY-NH2
modifications: disulfide 2-7; N-terminus assumed
SMILES: CC[C@H](C)[C@H](NC(=O)[C@H](C)NC(=O)[C@@H]1CCCN1C(=O)[C@H](Cc1ccccc1)NC(=O)[C@H](CC(N)=O)NC(=O)C(C)(C)NC(=O)[C@H](CO)NC(=O)[C@H](CO)NC(=O)[C@H](Cc1c[nH]cn1)NC(=O)[C@@H](NC(=O)[C@H](CC(C)C)NC(=O)[C@H](Cc1ccccc1)NC(=O)[C@H](CC(N)=O)NC(=O)[C@H](C)NC(=O)[C@H](CC(C)C)NC(=O)[C@H](CCCNC(=N)N)NC(=O)[C@H](CCC(N)=O)NC(=O)[C@@H](NC(=O)[C@H](C)NC(=O)[C@@H]1CSSC[C@H](NC(=O)[C@@H](N)CCCCNC(=O)CC[C@H](NC(=O)CC[C@H](NC(=O)CCCCCCCCCCCCCCCCCCC(=O)O)C(=O)O)C(=O)O)C(=O)N[C@@H](CC(N)=O)C(=O)N[C@@H]([C@@H](C)O)C(=O)N[C@@H](C)C(=O)N[C@@H]([C@@H](C)O)C(=O)N1)[C@@H](C)O)C(C)C)C(=O)N[C@@H](CC(C)C)C(=O)N[C@@H](CO)C(=O)N1CCC[C@H]1C(=O)N[C@H](C(=O)N[C@@H](CCN)C(=O)N[C@H](C(=O)NCC(=O)N[C@@H](CO)C(=O)N[C@@H](CC(N)=O)C(=O)N[C@H](C(=O)N[C@@H](Cc1ccc(O)cc1)C(N)=O)[C@@H](C)O)C(C)C)[C@@H](C)O
B5: Peptide 121 (SEQ ID NO: 121) (peptide)
peptide: K([γGlu-γGlu-C20 diacid])CNTATCATQRLANFLVHSS[Aib]NF[Hyp]AILSPTNVGSNTY-NH2
modifications: disulfide 2-7; not fully specified; printed as K(γE-γE-C20diacid)[CNTATC]ATQRLANFLVHSS(Aib)NF(Hyp)AILSPTNVGSNTY-amide

Assays:
[1] = target: T1, human calcitonin receptor; assay: cell-based or functional assay
[2] = target: T2, human amylin receptor (calcitonin …); assay: cell-based or functional assay

Row | Binder | EC50 (cAMP production) [1] [nM] | EC50 (cAMP production) [2] [nM] | Ratio (EC50 hCTR / EC50 hAMYR3) [2]
1 | B1 | 6.18 | 0.655 | 9
2 | B2 | 10.7 | 1.77 | 6
3 | B3 | 6.63 | 1.13 | 6
4 | B4 | 4.79 | 0.873 | 5
5 | B5 | 6.07 | 1.33 | 5
